The values below come from publication PMC11587861, “A high-throughput search for intracellular factors that affect RNA folding identifies E. coli proteins PepA and YagL as RNA chaperones that promote RNA remodelling”.

In one series the target is T1, YagL-H6 (Escherichia coli, UniProt P77607 1-232).
T1 sequence: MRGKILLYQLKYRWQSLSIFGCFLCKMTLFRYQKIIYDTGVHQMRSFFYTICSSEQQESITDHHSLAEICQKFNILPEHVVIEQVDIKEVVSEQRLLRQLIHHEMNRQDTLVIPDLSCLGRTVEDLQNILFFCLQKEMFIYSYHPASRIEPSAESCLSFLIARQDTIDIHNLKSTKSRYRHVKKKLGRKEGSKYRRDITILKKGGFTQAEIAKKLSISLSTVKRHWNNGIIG
The experiment in a line: filter binding; 75 mM Tris-HCl pH 7.5, 0.4 mM spermidine, 0.1 mM MgCl2, 50 mM NaCl, 0.5 mM EDTA, 0.25 mM DTT, 6% glycerol; 10 min at room temperature; 50 fmol RNA in 60 µL, protein 0-10 µM. The conditions noted are these: protein: recombinant, label: 5'-32P (printed as [31]P).

The next series has as its target T2, PepA-H6 (Escherichia coli, UniProt P68767 1-503).
T2 sequence: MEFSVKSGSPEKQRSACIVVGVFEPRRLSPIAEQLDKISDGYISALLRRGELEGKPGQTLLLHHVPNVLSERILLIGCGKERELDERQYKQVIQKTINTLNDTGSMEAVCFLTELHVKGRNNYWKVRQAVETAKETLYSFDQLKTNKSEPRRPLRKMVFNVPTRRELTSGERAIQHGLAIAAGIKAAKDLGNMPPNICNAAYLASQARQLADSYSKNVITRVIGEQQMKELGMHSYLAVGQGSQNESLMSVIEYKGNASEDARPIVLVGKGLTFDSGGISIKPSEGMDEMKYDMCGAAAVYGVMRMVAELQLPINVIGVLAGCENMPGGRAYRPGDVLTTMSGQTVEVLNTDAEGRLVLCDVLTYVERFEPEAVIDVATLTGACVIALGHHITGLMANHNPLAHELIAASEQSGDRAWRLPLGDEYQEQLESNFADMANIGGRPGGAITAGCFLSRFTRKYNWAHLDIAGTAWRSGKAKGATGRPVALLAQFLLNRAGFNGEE
Described as above. Particulars: protein: recombinant, tags: C-terminal His6, chain copies: 6, label: 5'-32P (printed as [31]P).

Consider GCUCUAGAGCAUUAUGUUCAGAUAAGG (structured_RNA) [hairpin], for which the results for the Kd in the series with YagL-H6 (hairpin) and with PepA-H6 (hairpin) were 2400 ± 300 nM and 600 ± 400 nM, respectively.
Regarding AUGUGGAAAAUCUCUAGCAGU (ssRNA) [21 R+], the Kd worked out at 4500 ± 300 nM in the series with YagL-H6 (single strand) and 2000 ± 600 nM with PepA-H6 (single strand).
Regarding CUGCUAGAGAUUUUCCACAU (ssRNA) [21 R-], the Kd with YagL-H6 (single strand) was found to be 5000 ± 1200 nM; with PepA-H6 (single strand), 600 ± 300 nM.
